# System: Escherichia coli TOP10
# Assay: shrunken log2 fold change of peptide-encoding DNA abundance (4.5 h post-induction vs induction); higher = less antimicrobial activity (less host growth inhibition)
# Details: time post-induction: 4.5 h; library: site-saturation at positions 5, 18, 19, 20
# 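Further: peptides expressed intracellularly from a pBAD plasmid library in pooled LB shake-flask culture, induced with 0.3% L-arabinose, DNA abundance read by NGS, three biological replicates, DESeq2 with apeglm shrinkage.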
row,Sequence,shrunken log2 fold change
1,RRIRERPPRLPRPRPRPSPNPRP,-0.328
2,RRIRERPPRLPRPRPRPSQVPRP,-0.0606
3,RRIRERPPRLPRPRPRPSRGPRP,0.49
4,RRIRERPPRLPRPRPRPSRTPRP,-0.111
5,RRIRERPPRLPRPRPRPSRVPRP,0.0314
6,RRIRERPPRLPRPRPRPSTEPRP,0.0386
7,RRIRERPPRLPRPRPRPSVNPRP,-0.959
8,RRIRERPPRLPRPRPRPTAPPRP,-0.043
9,RRIRERPPRLPRPRPRPTCTPRP,0.199
10,RRIRERPPRLPRPRPRPTDCPRP,-0.399
11,RRIRERPPRLPRPRPRPTDHPRP,-0.251
12,RRIRERPPRLPRPRPRPTDTPRP,-0.415
13,RRIRERPPRLPRPRPRPTEKPRP,0.154
14,RRIRERPPRLPRPRPRPTEVPRP,-0.121
15,RRIRERPPRLPRPRPRPTFWPRP,-0.0352
16,RRIRERPPRLPRPRPRPTGGPRP,0.342
17,RRIRERPPRLPRPRPRPTGWPRP,0.0993
18,RRIRERPPRLPRPRPRPTKCPRP,0.0642
19,RRIRERPPRLPRPRPRPTKGPRP,-0.184
20,RRIRERPPRLPRPRPRPTKLPRP,-0.0612
21,RRIRERPPRLPRPRPRPTKRPRP,-0.176
22,RRIRERPPRLPRPRPRPTLCPRP,0.259

row,Sequence,shrunken log2 fold change
1,RRIRERPPRLPRPRPRPTLKPRP,-0.197
2,RRIRERPPRLPRPRPRPTLRPRP,0.383
3,RRIRERPPRLPRPRPRPTMAPRP,0.00526
4,RRIRERPPRLPRPRPRPTNPPRP,-0.182
5,RRIRERPPRLPRPRPRPTPQPRP,0.246
6,RRIRERPPRLPRPRPRPTQEPRP,0.0237
7,RRIRERPPRLPRPRPRPTQTPRP,-0.00311
8,RRIRERPPRLPRPRPRPTTLPRP,-0.325
9,RRIRERPPRLPRPRPRPTTQPRP,0.299
10,RRIRERPPRLPRPRPRPTTSPRP,-0.147
11,RRIRERPPRLPRPRPRPTVKPRP,-0.218
12,RRIRERPPRLPRPRPRPTWFPRP,0.118
13,RRIRERPPRLPRPRPRPVCGPRP,0.243
14,RRIRERPPRLPRPRPRPVDIPRP,-0.105
15,RRIRERPPRLPRPRPRPVDNPRP,-0.107
16,RRIRERPPRLPRPRPRPVDQPRP,0.0107
17,RRIRERPPRLPRPRPRPVEQPRP,-0.209
18,RRIRERPPRLPRPRPRPVFMPRP,-0.356
19,RRIRERPPRLPRPRPRPVGLPRP,0.147
20,RRIRERPPRLPRPRPRPVINPRP,-0.217
21,RRIRERPPRLPRPRPRPVIYPRP,-0.248
22,RRIRERPPRLPRPRPRPVKKPRP,-0.179

row,Sequence,shrunken log2 fold change
1,RRIRERPPRLPRPRPRPVLCPRP,0.0605
2,RRIRERPPRLPRPRPRPVLWPRP,0.153
3,RRIRERPPRLPRPRPRPVMAPRP,-0.0537
4,RRIRERPPRLPRPRPRPVMTPRP,-0.221
5,RRIRERPPRLPRPRPRPVNDPRP,-0.0156
6,RRIRERPPRLPRPRPRPVNPPRP,-0.0961
7,RRIRERPPRLPRPRPRPVPFPRP,-0.229
8,RRIRERPPRLPRPRPRPVQSPRP,-0.015
9,RRIRERPPRLPRPRPRPVREPRP,0.242
10,RRIRERPPRLPRPRPRPVTSPRP,-0.23
11,RRIRERPPRLPRPRPRPVTTPRP,-0.0245
12,RRIRERPPRLPRPRPRPVVEPRP,0.118
13,RRIRERPPRLPRPRPRPVVYPRP,-0.945
14,RRIRERPPRLPRPRPRPVWRPRP,0.202
15,RRIRERPPRLPRPRPRPWAIPRP,-0.0826
16,RRIRERPPRLPRPRPRPWALPRP,-0.144
17,RRIRERPPRLPRPRPRPWCHPRP,-0.229
18,RRIRERPPRLPRPRPRPWCIPRP,-1.84
19,RRIRERPPRLPRPRPRPWDTPRP,-0.623
20,RRIRERPPRLPRPRPRPWEKPRP,-0.00277
21,RRIRERPPRLPRPRPRPWFHPRP,-0.421
22,RRIRERPPRLPRPRPRPWHHPRP,-0.326

row,Sequence,shrunken log2 fold change
1,RRIRERPPRLPRPRPRPWIDPRP,-0.0474
2,RRIRERPPRLPRPRPRPWKHPRP,-0.176
3,RRIRERPPRLPRPRPRPWLEPRP,0.101
4,RRIRERPPRLPRPRPRPWLNPRP,-0.00136
5,RRIRERPPRLPRPRPRPWLPPRP,-0.0302
6,RRIRERPPRLPRPRPRPWMGPRP,0.299
7,RRIRERPPRLPRPRPRPWMVPRP,-0.685
8,RRIRERPPRLPRPRPRPWNDPRP,-0.342
9,RRIRERPPRLPRPRPRPWNHPRP,-1.48
10,RRIRERPPRLPRPRPRPWNKPRP,-0.286
11,RRIRERPPRLPRPRPRPWPLPRP,0.0261
12,RRIRERPPRLPRPRPRPWQHPRP,-0.00568
13,RRIRERPPRLPRPRPRPWRHPRP,-0.0998
14,RRIRERPPRLPRPRPRPWSSPRP,9.28e-05
15,RRIRERPPRLPRPRPRPWTKPRP,0.0475
16,RRIRERPPRLPRPRPRPWTLPRP,-0.407
17,RRIRERPPRLPRPRPRPWWEPRP,0.0397
18,RRIRERPPRLPRPRPRPWWIPRP,-0.021
19,RRIRERPPRLPRPRPRPWWRPRP,0.098
20,RRIRERPPRLPRPRPRPWYMPRP,-0.386
21,RRIRERPPRLPRPRPRPWYPPRP,-0.224
22,RRIRERPPRLPRPRPRPYAFPRP,-0.961

row,Sequence,shrunken log2 fold change
1,RRIRERPPRLPRPRPRPYAGPRP,-0.000921
2,RRIRERPPRLPRPRPRPYAQPRP,-0.384
3,RRIRERPPRLPRPRPRPYCIPRP,-0.205
4,RRIRERPPRLPRPRPRPYDLPRP,-0.169
5,RRIRERPPRLPRPRPRPYFHPRP,-0.996
6,RRIRERPPRLPRPRPRPYFMPRP,-0.784
7,RRIRERPPRLPRPRPRPYGEPRP,-0.0274
8,RRIRERPPRLPRPRPRPYGGPRP,-0.286
9,RRIRERPPRLPRPRPRPYHEPRP,-3.17
10,RRIRERPPRLPRPRPRPYHGPRP,-0.47
11,RRIRERPPRLPRPRPRPYKPPRP,-0.116
12,RRIRERPPRLPRPRPRPYLGPRP,-0.12
13,RRIRERPPRLPRPRPRPYLLPRP,-0.165
14,RRIRERPPRLPRPRPRPYNWPRP,-0.276
15,RRIRERPPRLPRPRPRPYQVPRP,-0.109
16,RRIRERPPRLPRPRPRPYSVPRP,-0.114
17,RRIRERPPRLPRPRPRPYYDPRP,-0.362
18,RRIRFRPPRLPRPRPRPAAYPRP,-0.341
19,RRIRFRPPRLPRPRPRPACDPRP,0.103
20,RRIRFRPPRLPRPRPRPACPPRP,0.12
21,RRIRFRPPRLPRPRPRPADSPRP,-0.187

# Reference: the supplement of paper PMC9112550, “Optimization of the antimicrobial peptide Bac7 by deep mutational scanning” (BMC Biology, 2022)
